This is an account of results in publication PMC2875725.

The data set addresses HCV NS5B RNA-dependent RNA polymerase (Hepatitis C virus (strain ), UniProt Q9WMX2 2421-3010). The data set is described as follows: protein chip with QD fluorescence.

Chain of HCV NS5B RNA-dependent RNA polymerase (Q9WMX2 2421-3010): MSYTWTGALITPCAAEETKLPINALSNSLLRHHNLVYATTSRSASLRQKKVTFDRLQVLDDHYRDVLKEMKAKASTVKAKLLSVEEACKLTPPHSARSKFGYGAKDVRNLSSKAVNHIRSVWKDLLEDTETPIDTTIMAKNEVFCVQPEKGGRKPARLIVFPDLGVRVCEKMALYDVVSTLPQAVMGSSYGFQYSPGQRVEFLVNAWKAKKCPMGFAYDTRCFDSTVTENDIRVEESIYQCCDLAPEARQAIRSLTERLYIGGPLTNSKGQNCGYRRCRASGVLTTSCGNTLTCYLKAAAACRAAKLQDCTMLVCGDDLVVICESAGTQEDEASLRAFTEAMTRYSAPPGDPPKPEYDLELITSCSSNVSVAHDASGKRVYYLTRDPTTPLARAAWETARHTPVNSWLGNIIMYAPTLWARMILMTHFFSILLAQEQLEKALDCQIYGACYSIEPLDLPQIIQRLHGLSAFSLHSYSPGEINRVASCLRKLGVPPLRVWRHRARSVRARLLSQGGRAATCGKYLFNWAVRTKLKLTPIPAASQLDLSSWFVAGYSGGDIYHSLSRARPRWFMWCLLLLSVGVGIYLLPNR

As for CCCCACAUUCUCACCCCCUC (ssRNA, 5'-amine) [NS5Bmut RNA oligonucleotide], the binding result was “no binding”.
